Measurements: US8598320B2, “Anti-PCSK9 and methods for treating lipid and cholesterol disorders” (Merck Sharp & Dohme Corp., priority 2007, dated 2013)
Values joined by “and” are separate entries in the source; they are usually repeats but may differ in a detail not shown here. Equal entries are not always repeated. Marks after values point to notes of the source that are not given here.

Tests used:
[1] = biological target: PCSK9/LDLR interaction (Homo sapiens, UniProt Q8NBP7); assay: Alphascreen binding assay: inhibition of PCSK9/LDLR interaction (Example 3)
PCSK9/LDLR interaction, sequence (Q8NBP7 153-692): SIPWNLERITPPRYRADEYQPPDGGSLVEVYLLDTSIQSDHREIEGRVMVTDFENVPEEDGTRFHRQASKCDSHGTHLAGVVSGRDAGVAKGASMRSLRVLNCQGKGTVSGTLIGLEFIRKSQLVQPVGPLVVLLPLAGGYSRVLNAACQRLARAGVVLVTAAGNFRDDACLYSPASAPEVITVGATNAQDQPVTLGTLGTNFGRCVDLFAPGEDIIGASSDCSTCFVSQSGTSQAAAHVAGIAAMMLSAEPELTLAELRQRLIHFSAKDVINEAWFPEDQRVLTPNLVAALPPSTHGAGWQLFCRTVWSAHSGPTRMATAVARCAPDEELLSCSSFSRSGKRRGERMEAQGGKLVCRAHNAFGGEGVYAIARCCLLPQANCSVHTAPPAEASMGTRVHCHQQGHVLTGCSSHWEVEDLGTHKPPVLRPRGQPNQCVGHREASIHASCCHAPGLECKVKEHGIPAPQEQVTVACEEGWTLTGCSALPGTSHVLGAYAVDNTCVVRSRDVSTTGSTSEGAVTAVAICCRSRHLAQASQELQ
PCSK9/LDLR interaction, sequence (Q8NBP7 31-152 partner limits assumed): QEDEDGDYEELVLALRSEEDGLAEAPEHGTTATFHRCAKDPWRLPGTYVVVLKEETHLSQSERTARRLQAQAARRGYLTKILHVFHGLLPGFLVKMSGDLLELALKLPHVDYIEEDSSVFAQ
From the text: An Amplified Luminescent Proximity Homogeneous Assay (ALPHA, Perkin-Elmer; Waltham, Mass.) capable of directly determining the interaction between PCSK9-FLAG and a putative binding partner was used to determine the effect of anti-PCSK9 antibodies on this interaction. This technique required that “donor” and “acceptor” beads be brought into proximity via protein-protein interaction, resulting in increased luminescence (Ullman et al., Proc. Nat. Acad. Sci. (1994) 91:5426-5430). In the basic assay, LDL receptor binding to PCSK9 was determined as follows: 5 μl of recombinant receptor at the appropriate concentrations was incubated with 2.5 μl PCSK9-FLAG (1.4 μg/ml, 30 min). About 2.5 μl of biotinylated anti-Flag-M2 antibody (1.8 μg/ml) was added and the mixture incubated for 1 hour. Afterward 5 μl of streptavidin donor bead and nickel chelate acceptor bead (1:1 mixture) was added and the assay incubated overnight. AlphaScreen signal (counts per second) was analyzed using an EnVision microplate reader (Perkin-Elmer). All data points were determined in triplicate. Assays were carried out at 23° C. in buffer containing 25 mM HEPES, 0.1 M NaCl, pH 7.4, 0.1% BSA. The inhibition assays were determined similarly with slight adjustments to assay volumes and protein concentrations. Briefly, 5 μl of 1.25 μg/ml of PCSK9-Flag and 1.25 μg/ml of His-tagged LDL receptor was incubated with 2.5 μl of antibody at the appropriate concentrations for 30 minutes followed by the addition of 2.5 μl of anti-Flag-BioM2 (1.8 μg/ml) and a 1 hour incubation.

[2] = biological target: T1, PCSK9 (Homo sapiens, UniProt Q8NBP7); assay: In-cell western: inhibition of PCSK9-mediated LDLR degradation in HepG2 cells; assay type: cell-based; set-up: The protein was added exogenously to HepG2 cells; key to Relative level of inhibition of LDLR degradation observed: Greater number of + symbols indicates a greater level of inhibition relative to other treatments.; ++: Greater number of + symbols indicates a greater level of inhibition relative to other treatments.; +++: Greater number of + symbols indicates a greater level of inhibition relative to other treatments; conditions: for Relative level of inhibition of LDLR degradation observed: PCSK9 100 nM, 18 hours, LDLR normalized to β-actin
T1 sequence (Q8NBP7 153-692): as the sequence (Q8NBP7 153-692) above
Description: The 75B9, 77D10, 11B5, 22D11, 1F11/1G11 and 29C10 antibodies were evaluated in an in-cell western assay for their ability to inhibit the degradation of the LDL receptor by PCSK9 in HepG2 cells.
In-cell western was performed to quantitate anti-PCSK9 antibody inhibition of PCSK9-mediated LDLR degradation. HepG2 cells were seeded in 384-well collagen I coated plates and treated with anti-PCSK9 antibody and/or PCSK9 (100 nM) for 18 hours. Detection of LDLR and β-actin was performed according to the manufacturer's protocol (Li-Cor Biosciences; Lincoln, Nebr.) using the antibodies described above in conjunction with IRDye 800CW goat anti-rabbit (Li-Cor) and IRDye 680 goat anti-mouse (Li-Cor). The assay was read on an Odyssey infrared imaging system (Li-Cor) and the signal for LDLR protein in each well normalized to β-actin content.

[3] = biological target: T1, PCSK9; assay: Plasma cholesterol in mice injected with human PCSK9; assay type: in vivo; set-up: host or cells: Exogenous protein injected into male C57BL/6J mice; conditions: Male C57BL16j mice; 400 μg antibody i.p., 10 μg human PCSK9 i.v. at 2 hours; plasma at 4 hours
Description: (§1) The ability of an anti-PCSK9 antibody (1F11/1G11) to inhibit LDL receptor degration in mice was evaluated in these assays along with the ability of the antibodies to modulate cholesterol levels.
(§2) Time-0: Male C57BL16j mice were injected, intraperitoneal, with 400 μg of anti-human PCSK9 Antibody, 1F11/1G11. • Time-2 hours: Mice were then injected, intravenously, with 10 μg of human PCSK9 Protein. • Time-4 hours: Mice were terminated and plasma and liver samples were collected. Analysis:
Plasma lipoprotein profiles of individual mice (0.1 mL plasma) were determined by fast protein liquid chromatography (FPLC) with a Pharmacia Superose 6 column. FPLC fraction cholesterol levels were determined using Wako Cholesterol Enzymatic colorimetric method.

[4] = biological target: T1, PCSK9; assay: In vivo inhibition of liver LDLR degradation in mice (Western blot); set-up: host or cells: Exogenous protein injected into male C57BL/6J mice; conditions: for LDLR/GAPDH / LDLR (band intensity): liver, individual mice 107-110; for LDLR (band intensity): 400 μg antibody i.p., 10 μg human PCSK9 i.v.; for Mean LDLR/GAPDH: Antibody and PCSK9 group; for % Change: mean LDLR/GAPDH vs. Saline only control
Description: as §1, §2
Protein levels of Liver LDL Receptor were determined by Western Blot. 40 μg of each liver homogenate was separated on an Invitrogen 4-12% NuPAGE gel, transferred to PVDF membrane and incubated with goat anti-mouse LDL receptor antibody (rabbit anti-GAPDH antibody was used as a control for equal loading). Membranes were then incubated with corresponding HRP-linked antibodies and visualization was accomplished with high performance chemiluminescence film. Band intensities were quantified using ImageQuant 5.2 software.
LDL receptor levels were expressed in Arbitrary Units (AU) as a ratio of LDL receptor band intensity to GAPDH band intensity. Two separate analyses of the data are presented, […]

Molecule | Inhibition of PCSK9/LDL receptor interaction (in words) [1] | Inhibition of PCSK9-mediated LDL receptor degradation (in words) [2] | Relative level of inhibition of LDLR degradation observed [2] | Plasma total cholesterol level [3] | LDLR/GAPDH ([4]; Table 7, lightest exposure of LDLR panel vs. GAPDH panel) | LDLR (band intensity) ([4]; Table 7, lightest exposure of LDLR panel) | Mean LDLR/GAPDH ([4]; Table 7, lightest exposure) | % Change ([4]; Table 7, lightest exposure) | LDLR/GAPDH ([4]; Table 8, darker exposure of LDLR panel vs. lightest GAPDH panel) | LDLR (band intensity) ([4]; Table 8, darker exposure of LDLR panel) | Mean LDLR/GAPDH ([4]; Table 8, darker exposure) | % Change ([4]; Table 8, darker exposure) | % inhibition at 450 nM of antibody ([1]; 450 nM antibody, relative to the assay with no antibody added)
75B9: mouse anti-human PCSK9 antibody (IgG2a); heavy chain SEQ ID NO: 18, light chain SEQ ID NO: 22 (antibody, listed as Mus musculus, V domains shown) VH: EVQLQQSGADLVKPGASVKLSCTASGFNIKDTYIHWVKQRPEQGLEWIGRIDPANGHTEYDPKFQGRATLTTDTSSNTAYLQLFSLTSEDSAVYFCARSYYGSIFAYWGQGTLVTVSA VL: QIVLTQSPAIMSASPGEKVTISCSASSSVSYLFWYQQKPGSSPKPWIFRTSYLASGVPARFSGSGSGTSFSLTISSMEAEDAATYYCHQYHTYPPTFGGGTKLEIKRA | effectively inhibit interaction between PCSK9 and the LDL receptor | inhibit PCSK9-mediated LDL receptor degradation | ++ | – | – | – | – | – | – | – | – | – | –
11B5: mouse anti-human PCSK9 antibody (IgG2a); heavy chain SEQ ID NO: 10, light chain SEQ ID NO: 14 (antibody, listed as Mus musculus, V domains shown) VH: EVQLQQSGAELVKPGASVTLSCTASGFNIKDTYMHWVNQRPEQGLVWIGRIDPANGHTEYDPKFQDKATITTDTSSNTAYLHLSSLTSGDTAVYYCARSYFGSIFAYWGQGTLVTVSA VL: QIVLTQSPAIMSASPGEKVTISCSASSSVSYLYWYQQKPGSSPKPWIFRSSHRASGVPARFSGSGSGTSYSLTISSMEAEDAATYYCHQYQSYPPTFGGGTKLEIKRA | effectively inhibit interaction between PCSK9 and the LDL receptor | inhibit PCSK9-mediated LDL receptor degradation | ++ | – | – | – | – | – | – | – | – | – | –
29C10: mouse anti-human PCSK9 antibody (IgG2a); heavy chain SEQ ID NO: 34, light chain SEQ ID NO: 38 (antibody, listed as Mus musculus, V domains shown) VH: EVLLQQSVAELVRPGASVRLSCTASGFNIKDTYIHWVRQRPEQGLEWFGWIDPANGYTKYAPNFQGKATLTTDTSSNTAYLHLSSLTSEDSAIYYCARGYYRYYSLDYWGQGTSVTVSS VL: DIQMTQTTSSLSASLGDRVTISCRASQDISNYLNWYQQKPDGTVKLLIYYSSRLHSGVPSRFSGRGSGTDYSLTISTLEQEDIATYFCQQGKTLPLTFGAGTKLELKRA | effectively inhibit interaction between PCSK9 and the LDL receptor | inhibit PCSK9-mediated LDL receptor degradation | + | – | – | – | – | – | – | – | – | – | –
22D11: anti-human PCSK9 antibody (IgG1); heavy chain SEQ ID NO: 42, light chain SEQ ID NO: 46 (antibody, listed as Mus musculus, V domains shown) VH: EVQLVDSGGGLVQPGRSLKLSCAASGFTFSNHDMAWVRQAPTKGLEWVASITPSGGTTYYRDSVEGRFTVSRDNVKSSLHLQMDSLTSEDTATYYCARQNYYDGSYYYGLYYFDYWGQGVMVTVSS VL: DVLMTQTPVSLPVSLGGQVSISCRSSQSLVYSDGNTYLHWYLQKPGQSPQLLIYRVSNRFSGVPDRFSGSGSGTDFTLKISRVEPEDLGLYYCLQSTHFPPTFGSGTKLEIKRA | effectively inhibit interaction between PCSK9 and the LDL receptor | inhibit PCSK9-mediated LDL receptor degradation | + | – | – | – | – | – | – | – | – | – | –
77D10: mouse anti-human PCSK9 antibody (IgG2b); heavy chain SEQ ID NO: 26, light chain SEQ ID NO: 30 (antibody, listed as Mus musculus, V domains shown) VH: EVQLQQSGAELVRSGASVKLSCTTSGFNIKDYYIHWVKQRPEQGLEWIGWIDPENGDTEYAPKFQGKATMTADTSSNTAYLQLSSLTSADTAVYYCNAYYRYDDGTWFPYWGQGTLVTVSA VL: DIQLTQSPASLSASVGETVTITCRASGNIHSYLAWYQQKQGKSPQFLVDNAKTLPDGVPSRFSVSGSGTQYSLKINSLQPEDFGTYYCQHFWNTPWTFGGGTKLEIKRA | effectively inhibit interaction between PCSK9 and the LDL receptor | inhibit PCSK9-mediated LDL receptor degradation | ++ | – | – | – | – | – | – | – | – | – | –
1F11/1G11: mouse anti-human PCSK9 antibody (IgG2a); heavy chain SEQ ID NO: 50, light chain SEQ ID NO: 54 (antibody, listed as Mus musculus, V domains shown) VH: EVQLQQSGPELVKPGASVKISCKVSGYTFTDYYMNWVKQSHGKSLEWIGDINPNNGGAIYNQKFKGKATLTVDKSSSIAYMELRSLTSEDSAVYYCTSGIITEIAEDFWGQGTTLTVSS VL: DIVMTQSQKFMSTSVGDRVSVTCKASQNVGTNVVWYQQKPGQSPKALIHSASYRYSGVPDRFKGSGSGTDFTLTITNVQSEDLAGFFCQQYKTYPYTFGGGTQLEIKRA | effectively inhibit interaction between PCSK9 and the LDL receptor | inhibit PCSK9-mediated LDL receptor degradation | +++ | 72.05 mg/dL | 0.272 AU and 0.278 AU and 0.262 AU and 0.128 AU | 13714 and 13766 and 12508 and 5977 | 0.235 AU | −48.0% | 0.439 AU and 0.396 AU and 0.426 AU and 0.249 AU | 19883 and 18057 and 18642 and 10669 | 0.377 AU | −35.2% | 88* %
